Molecular target: GST-p35-C/EBPβ
Assay: pull-down

B1: Elk-1 (wild type), in vitro translated (natural protein)
chain: MDPSVTLWQFLLQLLREQGNGHIISWTSRDGGEFKLVDAEEVARLWGLRKNKTNMNYDKLSRALRYYYDKNIIRKVSGQKFVYKFVSYPEVAGCSTEDCPPQPEVSVTSTMPNVAPAAIHAAPGDTVSGKPGTPKGAGMAGPGGLARSSRNEYMRSGLYSTFTIQSLQPQPPPHPRPAVVLPSAAPAGAAAPPSGSRSTSPSPLEACLEAEEAGLPLQVILTPPEAPNLKSEELNVEPGLGRALPPEVKVEGPKEELEVAGERGFVPETTKAEPEVPPQEGVPARLPAVVMDTAGQAGGHAASSPEISQPQKGRKPRDLELPLSPSLLGGPGPERTPGSGSGSGLQAPGPALTPSLLPTHTLTPVLLTPSSLPPSIHFWSTLSPIAPRSPAKLSFQFPSSGSAQVHIPSISVDGLSTPVVLSPGPQKP
modifications: labeled with [35S] methionine
- percent of input retained on the beads: 35 to 45%
